Data reported in the supplement of paper PMC9170038.

System: K4 kissing-loop RNA reporter
Assay: apparent KD of K4 kissing-loop reporter; higher = weaker reporter binding
Conditions: Eterna round: R107
Experimental: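 RNA-MaP round R107: designed RNA switches with theophylline, tryptophan, arginine or FMN aptamers are transcribed on-chip within common flanks. They are titrated with a labelled K4 kissing-loop RNA reporter in RNA-MaP buffer (100 mM Tris pH 7.5, 80 mM KCl, 4 mM MgCl2), without ligand or with the indicated ligand. Median apparent KD per design.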

[1] = input ligand: theophylline 20 uM
[2] = input ligand: tryptophan 2.4 mM
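Note: bound reporter read as fluorescence of individual clusters on recovered sequencing chips by microscopy, with normalized cluster intensities fitted with a binding model.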

| Sequence | apparent KD of K4 kissing-loop reporter (input ligand: FMN 200 uM) | apparent KD of K4 kissing-loop reporter (input ligand: arginine 13.2 mM) | apparent KD of K4 kissing-loop reporter (input ligand: none) | apparent KD of K4 kissing-loop reporter [1] | apparent KD of K4 kissing-loop reporter [2] |
| --- | --- | --- | --- | --- | --- |
| GCCGUAGAUUGAAGGAGCGGCUUCAUCAAAUCUCUAGCCCACACCAGUGAUGUUGGUGUUAGCCAGGUAGGUCGCAAUCUACGGC | 0.421 µM | 0.313 µM | 0.45 µM | 0.43 µM | 0.411 µM |
| GCCGUAGAUUGAAGGAGCGGUAUGGGCGGUGGCUGAGUGAUGUUCAGGAAAAGUGGCUUCUACCAGGUAGGUCGCAAUCUACGGC | 0.108 µM | 0.103 µM | 0.127 µM | 0.146 µM | 0.113 µM |
| GCCUGGGCACGAAGGAGCGCCGUGACAGGUUACUGCCUUGGGCAGUGAUGUUGCUCAAUCUGGCAGGUAGGUCGCGUGCCCAGGC | 0.162 µM | 0.162 µM | 0.161 µM | 0.159 µM | 0.168 µM |
| GCGCAUGUUAAAGGAUAUAGCAGGUGAUACAAGAAAGUGAGUGAUGUUUAUGUAGAUGAUGAUAUGUUAGAAGGUUAACAAAAGC [abcdefghijklmn] | 0.717 µM | 0.624 µM | 0.674 µM | 0.691 µM | 0.434 µM |
| GCGCGCGGCGGAGGAUAUAGCCGGUGGUCCGGGAAAGUGAGUGAUGUUCGCGGAGUUCUGGAUAUGUUAGAAGGCCGCCGCGCGC [qwertyuiopasdfghjklzxcvbnm] | 1.01 µM | 0.857 µM | 1.06 µM | 0.7 µM | 0.718 µM |
| GCGCGGCAGGCGGCCGCCACUCUGACGAGCCACAGUGAUGUUGUGGUCGGAGUAACGUCUUCAUAGAGGACCGGGUUUGUUGUUC [Same State Typtophan A GF 26] | 0.224 µM | 0.212 µM | 0.239 µM | 0.29 µM | 0.23 µM |
| GCGCGGGAGUGAUGUUCCAAGUGGUGUUAACGAGGACCGGUACGGCCGCCACUCGUUACGGCCGGGCCGUAGGAUAAACUGGCGC [Same State - Tryptophan A (Freestyle 15)] | 0.373 µM | 0.418 µM | 0.479 µM | 0.544 µM | 0.398 µM |
| GCGCGGGAGUGAUGUUCCAAGUGGUGUUAGCGAGGACCGGUACGGCCGCCACUCGUUACGGGCGGCCCGUAGGAUACACUGGCGC [Same State - Tryptophan A (Freestyle 18)] | 0.431 µM | 0.399 µM | 0.43 µM | 0.56 µM | 0.392 µM |
| GCGCGUCAUGUCAGCGGUGACACUGUCGAUACCAGCGCCGAAAGGCGCCCUUGGCAGCGACGUGCUGGAGUGAUGUUCCAGCGUC [#2 Exclusion - Theophylline A Attempt #24 (HarryS)] | 0.163 µM | 0.108 µM | 0.148 µM | 0.148 µM | 0.139 µM |
| GCGCGUCAUGUCAGCGGUGACUAUGUCGAUACCAGCGCCGCAAGGCGCCCUUGGCAGCGACGCGCUGGAGUGAUGUUCCAGCGUG [#2 Exclusion - Theophylline A Attempt #10 (HarryS)] | 0.148 µM | 0.118 µM | 0.14 µM | 0.144 µM | 0.124 µM |
| GCGGCCCAGACGGAUACCAGUGACCCGCUGGGAACCGCGGGCCCAGAGUGAUGUUCGGGACACCCUUGGCAGCCGCCUGGGUCGC [#2 Same State - Theophylline B Attempt #19 (HarryS)] | 0.732 µM | 0.293 µM | 0.491 µM | 0.606 µM | 0.448 µM |
| GCGUCCAUGUAUGAUACCAGACUUUUUUUAGUAGGUGACGAUAGUGAUGUUAUACGUCAAGUCCCUUGGCAGCAUGACCUAUUAU [theeternabot_exclusion_KL_Theo_B_23] | 0.423 µM | 0.461 µM | 0.418 µM | 0.694 µM | 0.587 µM |
| GCGUCGCAGGUCGCAGUACCAUCGCGGGAUACCAGCCCUGCUACCGGCCCUUGGCAGCCCGGUUAUCGGUUAGUGAUGUUAGCCA [theeternabot_sameState_KL_Theo_A_44] | 0.642 µM | 0.531 µM | 0.739 µM | 0.621 µM | 0.591 µM |
| GCUACCUAGGCAGGAUAUCGUAUUGAGUGAUGUUCAAUAACGGUCUACCAAAGGUAGACCGACCUUCGAGAAGGGCCUAGGUAGC | 0.143 µM | 0.163 µM | 0.193 µM | 0.174 µM | 0.166 µM |
| GCUACUGCUGAAGGAUAUAUCAAUAGAGUGAUGUUCUAUGUCGGUAGCCCGAAAGGGCUACCGACGGUAGAAGGUCAGCAGUAGC | 0.182 µM | 1.09 µM | 1.56 µM | 1.12 µM | 0.96 µM |
| GCUAGCAUGGCAGGAUAUAGCUAUAGGAGUGAUGUUCCUUGGUAGGUGAGUGAUGUUCACUACCAACUAGAAGGGCCAUGCUAGC | 0.148 µM | 0.116 µM | 0.125 µM | 0.121 µM | 0.135 µM |

| Sequence | apparent KD of K4 kissing-loop reporter (input ligand: FMN 200 uM) | apparent KD of K4 kissing-loop reporter (input ligand: arginine 13.2 mM) | apparent KD of K4 kissing-loop reporter (input ligand: none) | apparent KD of K4 kissing-loop reporter [1] | apparent KD of K4 kissing-loop reporter [2] |
| --- | --- | --- | --- | --- | --- |
| GCUAGUGCCCGCUCGAAAGAGCGUGUGUGUAAGGAUAUCUAGUAAUAGAGAAGGUACGGAGUGAUGUUCCCACACGGGCACUAGC | 0.705 µM | 0.6 µM | 0.8 µM | 0.779 µM | 1.06 µM |
| GCUAUGGUAGGAAGGAGCGCGGACGAUAUUUAUCGAGUGAUGUUCGAUUCAUUAAUUUGAACGCAGGUAGGUCGCCUACUAUAGC [Arginine B K4 29] | 0.138 µM | 0.148 µM | 0.16 µM | 0.134 µM | 0.161 µM |
| GCUAUGGUAGGAAGGAGCGCUAAUUUAUUUUUACGAGUGAUGUUCGGUAGUAGAUUGUUAAAGCAGGUAGGUCGCCUACUAUAGC [Arginine B K4 17] | 0.103 µM | 0.124 µM | 0.106 µM | 0.0857 µM | 0.0925 µM |
| GCUAUGGUAGGAAGGAGCGCUACUUUAUUUUUACGAGUGAUGUUCGGUAGUAGAGUGUUAAAGCAGGUAGGUCGCCUACUAUAGC [Arginine B K4 18] | 0.217 µM | 0.132 µM | 0.14 µM | 0.172 µM | 0.146 µM |
| GCUAUGGUAGGAAGGAGCGCUUAAUUAUUAAUAAGAGUGAUGUUCGAUAAUAAAUAUUUAUAGCAGGUAGGUCGCCUACUAUAGC [KL-SSArg B22] | 0.155 µM | 0.168 µM | 0.174 µM | 0.243 µM | 0.104 µM |
| GCUAUGGUAGGAAGGAGCGCUUAUUUAUUAAUAAGAGUGAUGUUCGAUAAUAAAUAUUUAUAGCAGGUAGGUCGCCUACUAUAGC [Arginine B K4 1] | 0.225 µM | 0.219 µM | 0.232 µM | 0.227 µM | 0.204 µM |
| GCUAUGGUAGGAAGGAGCGCUUAUUUAUUAAUAAGAGUGAUGUUCGAUAAUAGAUAUUUAUAGCAGGUAGGUCGCCUACUAUAGC [Arginine B K4 11] | 0.29 µM | 0.278 µM | 0.293 µM | 0.321 µM | 0.165 µM |
| GCUAUGGUUGGAAGGAGCGUUGGGUUACUAAUAAGAGUGAUGUUCGAUAGUAGGUAAUUGUAGCAGGUAGGUCGCCAACUAUAGC [KL-Arg B26] | 0.29 µM | 0.304 µM | 0.329 µM | 0.234 µM | 0.211 µM |
| GCUAUGGUUGGAAGGAGCGUUUAAUUACUAAUAAGAGUGAUGUUCGAUAGUAGGUAAUUGUAGCAGGUAGGUCGCCAACUAUAGC [KL-Arg B25] | 0.215 µM | 0.232 µM | 0.186 µM | 0.222 µM | 0.224 µM |
| GCUGAUCGUUUUCCACGAUGCGGCUAAUAAAAGGAUAUUGGUAUAUCAAGAAGGUUUGUUCUGUGUAGUGAUGUUGCACCGUGUU [theeternabot_sameState_KL_FMN_A_28] | 0.0775 µM | 0.101 µM | 0.0805 µM | 0.111 µM | 0.0725 µM |
| GCUUUCCGUGCGGCCGCCACUGAUCUAAGUGAUGUUUAGAUCGCAUUCGAACCGGUUACCCAGAGCAGGACCGGGCACCAGCGCU [theeternabot_exclusion_KL_Trp_B_35] | 0.097 µM | 0.0849 µM | 0.0898 µM | 0.0901 µM | 0.0919 µM |
| GGACGAGUGAUGUUCGUUAUUAUGCAUUCAGAGGAUAUAGGAUUAGCUAGAAGGCUGAAUCAAUCUUCGAGUGAUGUUCGAGGAU [Same State FMN A GF 10] | 0.146 µM | 0.146 µM | 0.154 µM | 0.151 µM | 0.142 µM |
| GGACGCCGGUCGGCCGCCACUCACAGCAGUGAUGUUGCUGAGCUUGUAGCGGAGUGAUGUUCCGAGAGGACCGGGACUGCAGUUU [Same State Tryptophan B GF 10] | 0.522 µM | 0.506 µM | 0.739 µM | 0.55 µM | 0.532 µM |
| GGAGCAGGUGAAGGAUAUCCCGGGCCAGAGUGAUGUUCUGGAUCCCUUGCCGUGUCUAAACGGGUGGGAGAAGGUCACUGAUAAG [Erinxe] | 0.137 µM | 0.187 µM | 0.213 µM | 0.178 µM | 0.231 µM |
| GGAGGGAUCUCGGCCGCCACUCAUAAGAAAUGGGCCUCAGAAAUAUAGUGAUGUUAUAUAAAGAAGAGGACCGGGAGAAAGAAGG [ExTryptoB.D] | 0.197 µM | 0.128 µM | 0.129 µM | 0.203 µM | 0.131 µM |
| GGAGUUACCUGGGAUACCAGUCGGAGUCCGAGAGCUCGGAGUGAUGUUCUGGGAUGUUUCGGCCCUUGGCAGCUCUGGGACUCCC [#2 Exclusion - Theophylline B Attempt #10 (HarryS)] | 0.22 µM | 0.181 µM | 0.241 µM | 0.249 µM | 0.198 µM |
